Target: T1, CBRN-PLC-β3 fusion protein (phospholipase C-β3 with CBRN at its N-terminus) (UniProt Q01970 1-1234)
T1 construct: phospholipase C-β3 (PLC-β3); also called N-terminally-tagged PLC-β3; PLC-β3 sensor protein; not shown: CBRN (N-terminal fragment of red click-beetle luciferase, amino acids 1-416), N-terminal, kept
T1 sequence (looked up): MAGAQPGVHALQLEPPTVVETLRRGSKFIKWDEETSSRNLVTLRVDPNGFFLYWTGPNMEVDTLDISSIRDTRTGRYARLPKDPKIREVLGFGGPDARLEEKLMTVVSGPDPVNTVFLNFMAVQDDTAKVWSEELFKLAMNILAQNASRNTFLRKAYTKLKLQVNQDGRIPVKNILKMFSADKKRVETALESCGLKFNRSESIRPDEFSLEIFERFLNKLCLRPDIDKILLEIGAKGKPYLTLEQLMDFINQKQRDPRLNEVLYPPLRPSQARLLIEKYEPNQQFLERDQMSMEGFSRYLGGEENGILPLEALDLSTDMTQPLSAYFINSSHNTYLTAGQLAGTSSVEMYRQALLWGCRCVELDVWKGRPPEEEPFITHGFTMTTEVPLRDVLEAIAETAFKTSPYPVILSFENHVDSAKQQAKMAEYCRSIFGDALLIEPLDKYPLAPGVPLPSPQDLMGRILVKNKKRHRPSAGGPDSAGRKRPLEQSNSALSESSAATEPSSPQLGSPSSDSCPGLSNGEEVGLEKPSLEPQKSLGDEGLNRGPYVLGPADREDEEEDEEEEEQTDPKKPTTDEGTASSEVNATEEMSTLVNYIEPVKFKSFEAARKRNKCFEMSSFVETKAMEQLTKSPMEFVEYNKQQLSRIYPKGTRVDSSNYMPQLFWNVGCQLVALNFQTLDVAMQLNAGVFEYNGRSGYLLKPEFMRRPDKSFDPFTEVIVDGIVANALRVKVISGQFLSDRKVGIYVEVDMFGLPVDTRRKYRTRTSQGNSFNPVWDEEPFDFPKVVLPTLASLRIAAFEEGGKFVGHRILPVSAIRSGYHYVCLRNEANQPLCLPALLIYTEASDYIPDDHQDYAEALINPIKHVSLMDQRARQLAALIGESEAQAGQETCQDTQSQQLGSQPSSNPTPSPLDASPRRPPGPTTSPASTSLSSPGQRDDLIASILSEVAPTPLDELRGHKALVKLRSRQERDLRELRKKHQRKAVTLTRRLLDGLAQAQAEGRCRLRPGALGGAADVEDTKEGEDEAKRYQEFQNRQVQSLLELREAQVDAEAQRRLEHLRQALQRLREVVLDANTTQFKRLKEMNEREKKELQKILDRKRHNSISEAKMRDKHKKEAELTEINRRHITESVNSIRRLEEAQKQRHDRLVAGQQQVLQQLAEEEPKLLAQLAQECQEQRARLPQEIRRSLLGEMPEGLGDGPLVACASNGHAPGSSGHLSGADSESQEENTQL
Test: split reporter (BiFC, NanoBiT); split click-beetle luciferase complementation in live HEK293T cells expressing the sensor and a GPCR (hH1R; also hM1,3,5R, hNTS1R); D-luciferin added to the cells, L-15 with 5% FCS, 37 °C; stimulated with agonist (histamine)
Details: partners not purified

B1: Gαq(123) fusion protein (CBRC integrated into the Gαq sequence after amino acid 123) (natural protein, UniProt P50148 1-359, looked up)
chain: MTLESIMACCLSEEAKEARRINDEIERQLRRDKRDARRELKLLLLGTGESGKSTFIKQMRIIHGSGYSDEDKRGFTKLVYQNIFTAMQAMIRAMDTLKIPYKYEHNKAHAQLVREVDVEKVSAFENPYVDAIKSLWNDPGIQECYDRRREYQLSDSTKYYLNDLDRVADPAYLPTQQDVLRVRVPTTGIIEYPFDLQSVIFRMVDVGGQRSERRKWIHCFENVTSIMFLVALSEYDQVLVESDNENRMEESKALFRTIITYPWFQNSSVILFLNKKDLLEEKIMYSHLVDYFPEYDGPQRDAQAAREFILKMFVDLNPDSDKIIYSHFTCATDTENIRFVFAAVKDTILQLNLKEYNLV
notes: Gαq (G protein alpha q subunit); also called modified Gαq; Gαq sensor protein
S/B ratio (signal-to-background of luminescence): ~5

B2: Gαq(97) fusion protein (CBRC integrated into the Gαq sequence after amino acid 97) (natural protein, UniProt P50148 1-359, looked up)
chain: MTLESIMACCLSEEAKEARRINDEIERQLRRDKRDARRELKLLLLGTGESGKSTFIKQMRIIHGSGYSDEDKRGFTKLVYQNIFTAMQAMIRAMDTLKIPYKYEHNKAHAQLVREVDVEKVSAFENPYVDAIKSLWNDPGIQECYDRRREYQLSDSTKYYLNDLDRVADPAYLPTQQDVLRVRVPTTGIIEYPFDLQSVIFRMVDVGGQRSERRKWIHCFENVTSIMFLVALSEYDQVLVESDNENRMEESKALFRTIITYPWFQNSSVILFLNKKDLLEEKIMYSHLVDYFPEYDGPQRDAQAAREFILKMFVDLNPDSDKIIYSHFTCATDTENIRFVFAAVKDTILQLNLKEYNLV
notes: Gαq (G protein alpha q subunit); CBRC inserted after amino acid 97 with flexible Gly/Ser linkers; source: HEK293T, transfected, in cells; not shown: CBRC (C-terminal fragment of red click-beetle luciferase, amino acids 394-542), internal (after residue 97), kept
fold lower S/B ratio than the sensor with Gαq(123): ~3 fold
